In publication PMC5512577 (Nature Communications, 2016):
Ends that are not written are not given here. * marks the point of attachment. FITC = O=C1OC2(c3ccc(O)cc3Oc3cc(O)ccc32)c2ccc(NC(=S)*)cc21; Farnesyl = CC(C)=CCC/C(C)=C/CC/C(C)=C/C*; Far = not defined here

B1: phosphodiesterase 6 delta subunit (PDE6δ), N-terminal histidine-tagged (natural protein)
chain: MSAKDERAREILRGFKLNWMNLRDAETGKILWQGTEDLSVPGVEHEARVPKKILKCKAVSRELNFSSTEQMEKFRLEQKVYFKGQCLEEWFFEFGFVIPNSTNTWQSLIEAAPESQMMPASVLTGNVIIETKFFDDDLLVSTSRVRLFYV
notes: PDE6δ, the delta subunit of phosphodiesterase 6; the PDE6δ of PDB 3T5G was the search model for the structure solved here (5F2U); also called PrBP/PDE6δ; source: E. coli BL21-CodonPlus(DE3)-RIL, purified (Ni-NTA, gel filtration)
B2: Rheb(SI) peptide (K178S/S180I), farnesylated and carboxy-methylated (peptide)
peptide: SQGSSIC(Far)-OMe
modifications: reading uncertain
notes: C-terminal peptide of Rheb with the -1 and -3 residues swapped to those of INPP5E; Unlabelled; also called SQGSSIC(Far)-OMe; source: synthetic peptide, bought: CambridgePeptides
B3: full-length Arl2, C-terminal histidine-tagged, bound to GppNHp or mantGppNHp (natural protein, UniProt Q9D0J4 1-184, looked up)
chain: MGLLTILKKMKQKERELRLLMLGLDNAGKTTILKKFNGEDVDTISPTLGFNIKTLEHRGFKLNIWDVGGQKSLRSYWRNYFESTDGLIWVVDSADRQRMQDCQRELQSLLVEERLAGATLLIFANKQDLPGALSCNAIQEALELDSIRSHHWRIQGCSAVTGEDLLPGIDWLLDDISSRVFTAD
notes: Loaded with GppNHp (release assays) or mantGppNHp (kinetics with PDE6δ); Species surmised as mouse from earlier work of the same laboratory; the human protein is P36404; also called Arl2^fl; Arl2·GppNHp; source: E. coli BL21-CodonPlus(DE3)-RIL, purified (Ni-NTA, gel filtration)
B4: FITC-labelled farnesylated and carboxy-methylated C-terminal peptide of Rheb (residues 175-181) (peptide)
peptide: {FITC}-SQGKSSC(Far)-OMe
modifications: reading uncertain
notes: also called Rheb peptide; Fluorescein-SQGKSSC(Far)-OMe; source: synthetic peptide, bought: JPT
B5: TAMRA-labelled farnesylated and carboxy-methylated C-terminal peptide of INPP5E (residues 637-644) (peptide)
peptide: SQNSSTIC(Farnesyl)-OMe
modifications: also: TAMRA label, position not given here
notes: C-terminal peptide of inositol polyphosphate 5'-phosphatase E (INPP5E), printed as residues 637-644 with the farnesylated Cys644; also called INPP5E peptide; TAMRA-labelled INPP5E peptide; source: synthetic peptide, bought: JPT

Key:
Conditions in all cases: both partners purified
[1] = target: T1, full-length Arl3, C-terminal histidine-tagged, bound to GppNHp or mantGppNHp (UniProt Q9WUL7 1-182); test: fluorescence polarisation; stopped flow; kon: 0.2 μM mantGppNHp-loaded Arl protein with increasing PDE6δ; koff: 2 μM PDE6δ with 0.2 μM mantGppNHp-loaded Arl protein mixed with 200-fold excess of unlabelled Arl protein; Kd=koff/kon; 20 °C
T1 construct: Loaded with the non-hydrolysable GTP analogue GppNHp (release assays) or mantGppNHp (kinetics with PDE6δ); Species surmised as mouse from earlier work of the same laboratory; the human protein is P36405; also called Arl3^fl; Arl3·GppNHp; source: E. coli BL21-CodonPlus(DE3)-RIL, purified (Ni-NTA, gel filtration)

[2] = target: B3; test: as above
[3] = target: T2, N-terminally truncated Arl2 (aa 17-178), bound to mantGppNHp (UniProt Q9D0J4 17-178); test: as above
T2 construct: Arl2 residues 17-178; Species surmised as mouse from earlier work of the same laboratory; also called Arl2^ΔN; source: E. coli BL21-CodonPlus(DE3)-RIL, purified (GSH column, tag cleaved, gel filtration); not shown: GST, N-terminal, cleaved

[4] = target: T3, N-terminally truncated Arl3 (aa 18-177), bound to GppNHp or mantGppNHp (UniProt Q9WUL7 18-177); test: as above
T3 construct: Arl3 residues 18-177, without the N-terminal helix; Species surmised as mouse from earlier work of the same laboratory; also called Arl3^ΔN; source: E. coli BL21-CodonPlus(DE3)-RIL, purified (GSH column, tag cleaved, gel filtration); not shown: GST, N-terminal, cleaved

[5] = target: B5; test: fluorescence polarisation; stopped flow; complex of 1 μM PDE6δ with 0.2 μM labelled peptide mixed with 100-fold excess of unlabelled peptide and 10 μM Arl3·GppNHp; 20 °C
[6] = target: B1; test: fluorescence polarisation; competition: complex of 0.5 μM FITC-labelled Rheb peptide and 1 μM PDE6δ titrated with unlabelled mutant peptide; fitted with a competition model; 20 °C
[7] = target: B1; test: fluorescence polarisation; stopped flow; kon: 0.2 μM mantGppNHp-loaded Arl protein with increasing PDE6δ; koff: 2 μM PDE6δ with 0.2 μM mantGppNHp-loaded Arl protein mixed with 200-fold excess of unlabelled Arl protein; Kd=koff/kon; 20 °C
[8] = target: B1; test: fluorescence polarisation; stopped flow; complex of 1 μM PDE6δ with 0.2 μM labelled peptide mixed with 100-fold excess of unlabelled peptide, no Arl protein; 20 °C
[9] = target: B1; test: fluorescence polarisation; 0.01 μM TAMRA-labelled INPP5E peptide or 0.5 μM FITC-labelled Rheb peptide titrated with increasing PDE6δ; 20 °C; 25 mM Tris-HCl pH 7.5, 50 mM NaCl, 3 mM DTE; quadratic fit

Binder: B1
Kd [1]: 5.8 nM
Kd [2]: 149 nM
Kd [3]: 316 nM
Kd [4]: 217 nM
fold acceleration of koff by Arl3·GppNHp against no Arl [5]: ~10000 fold

Binder: B2
Kd [6]: 12 nM

Binder: B3
fold difference in koff against Arl2^ΔN [7]: 3 fold

Binder: B4
koff [8]: 0.95 s⁻¹
Kd [9]: 445 nM

Binder: B5
Kd [9]: 3.7 nM
